Key:
[1] = system: E. coli cells expressing an HPPD polypeptide; test: Brown Color Assay on solid LB-agar, visual score of brown pigment; assay type: cell-based; parameters: key to brown pigment formation: +++: a dark brown coloring as seen for E. coli cells expressing one of the respective mutant HPPD polypeptide without inhibitor; ++: medium brown pigmentation; +: light brown pigmentation; 0: no brown pigmentation development was detected on the LB agar plates
Procedure: Mutant HPPD polypeptides were analyzed using a brown color assay (WO2014/043435). Bacterial cells expressing the mutant HPPD polypeptide according to the invention were assayed in 96 well format for HPPD inhibitor tolerance by spotting on solid media containing LB-agar, selection agent for the expression vector pSE420(RI)NX (WO2014/043435), 5 mM tyrosine (Sigma-Aldrich, St. Louis, USA), 42 mM succinate (Sigma-Aldrich, St. Louis, USA) and six different concentrations of the HPPD inhibitor herbicide Cmpd. 1 (0-500 μM). In the brown color assay, an overnight culture of the E. coli cells expressing one of the respective mutant HPPD polypeptides were diluted to an OD600 of 1 and 10 μl extract was spotted in triplicates on plates containing 0, 25, 50, 100, 250, or 500 μM of Cmpd. 1. Plates were covered with airpore tape and incubated at 30 degrees C. After 24 hours, the cells were kept in darkness at room temperature and after 7 days the brown pigment formation was scored visually. In the presence of an HPPD inhibitor herbicide, this pigment formation is inhibited and the color of the agar plate will not alter, unless an HPPD inhibitor herbicide tolerant HPPD polypeptide is expressed and active. […] The “++” and “+” scores a medium and light brown pigmentation, respectively, and the “0” means that no brown pigmentation development was detected on the LB agar plates.

[2] = system: E. coli cells expressing an HPPD polypeptide; test: Brown color bioassay in liquid culture, residual brown color formation (BCF), OD440 after 96 hours; assay type: cell-based; conditions: Cmpd. 1 1000 μM, 96 hours
In short: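 E. coli expressing HPPD variants were grown at 30 degrees Celsius from OD600 0.3-0.5 in LB with 5 mM HPP, with or without herbicide (e.g. Cmpd. 1, 1000 μM). After 96 hours, supernatant OD440 was measured; residual brown colour formation compares pigment with and without inhibitor.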

[3] = system: transgenic soybean T0 events; test: Greenhouse spray test of T0 soybean events, herbicide tolerance rating 0-3; assay type: in vivo; conditions: Cmpd. 1 300 g AI/ha; for number of events with Herbicide Tolerance Rating 0: five days after application; for number of events with Herbicide Tolerance Rating 1: rating 1 = slight tolerance, 50-95% leaf damage; for number of events with Herbicide Tolerance Rating 2: rating 2 = moderate tolerance, 10-49% of leaf area; for number of events with Herbicide Tolerance Rating 3: rating 3 = good tolerance, less than 10% of leaf area
Procedure: Tolerant green shoots were transferred to rooting media or grafted. Rooted plantlets were transferred to the greenhouse after an acclimation period. Plants containing the transgene were then sprayed with HPPD inhibitor herbicides, as for example with mesotrione at a rate of 300-600 g AI/ha, or with Cmpd. […] Five to ten days after the application, the symptoms due to the application of the herbicide were evaluated and compared to the symptoms observed on wild-type plants under the same conditions.
For example, T0 soybean plants having a “plant expression cassette”, which includes an HPPD inhibitor tolerant HPPD polypeptide of the present invention, were tested towards the tolerance of Cmpd. 1.
Prior greenhouse trials with the transgenic plants, soybean transformants were routinely analyzed for the expression and presence of the transgenes using the ELISA protein detection method (see detailed description under item D and H). Only plants recovering in the selection media and having a detectable HPPD transgene protein expression were used for the herbicide tolerance analysis. A DeVries Tracker Sprayer was calibrated prior to each spraying. The chemical formulation used for Cmpd. 1 was supplemented with ammonium sulfate and methylated rape seed oil. Spray tests were conducted with a concentration, which equals to 300 grams AI per hectare (300 g AI/ha). Tolerance was evaluated 5 days after spraying. […] A rating of “3” was assigned to plants showing good tolerance, i.e. less than 10% of the leaf area from the top three trifoliate leaves showing chlorosis or only very slight bleaching.

[4] = system: transgenic soybean T0 events; test: Additional greenhouse trials of T0 soybean events, leaf damage score 0-100 as percentiles; assay type: in vivo; conditions: Cmpd. 1 300 g AI/ha, five days
In short: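 Independent T0 events (21 to 94 per construct, single cassette insertion) expressing mutant HPPD were sprayed with HPPD inhibitor herbicide in the greenhouse. Leaf damage scored 5 days after application from 0 (no damage) to 100 (complete bleaching). Scores reported as percentile distributions (25th, median, 75th) per construct.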

[5] = system: transgenic T1 soybean events; test: Field trials of T1 soybean events, leaf damage eight days after application; assay type: in vivo
Procedure: Soybean plants expressing an HPPD inhibitor tolerant polypeptide of the present invention alone, or along with a gene conferring tolerance to glyphosate and/or a gene conferring tolerance to glufosinate or having a “plant expression cassette”, which includes only an HPPD inhibitor tolerant polypeptide of the present invention, were tested for tolerance to different HPPD inhibitor herbicide chemical classes. The transgenic plants were routinely analyzed for the expression and presence of the transgenes using the ELISA protein detection method (see detailed description under item D and H). Only plants recovering in the selection media and having a detectable HPPD transgene protein expression were regenerated, transferred to the greenhouse and used at V2-V4 growth stage for the HPPD inhibitor herbicide tolerance analysis of the T0 soybean events in the greenhouse (Example 6). The chemical formulation with HPPD inhibitor herbicides was supplemented with ammonium sulfate and methyl ester rapeseed oil. Herbicide tolerance evaluation was taken 5-21 days after spraying. The best performing independent T0 soybean events were selfed to produce T1 soybean seeds. In the field trails, the advanced T1 soybean seeds were planted and treated with either 210 g/ha of isoxaflutole or 150 g/ha of Cmpd.
In Table 10, the frequency of the soybean events showing a good tolerance, i.e. equal or less than 15% damage of the total leaf area are summarized

[6] = 25 μM Cmpd. 1, scored after 7 days
[7] = 50 μM Cmpd. 1, scored after 7 days
[8] = 100 μM Cmpd. 1, scored after 7 days
[9] = 250 μM Cmpd. 1, scored after 7 days
[10] = 500 μM Cmpd. 1, scored after 7 days
[11] = 150 g/ha Cmpd. 1, stage V2-V4, eight days after application
[12] = 210 g/ha isoxaflutole, stage V2-V4, eight days after application

B1: SEQ ID NO: 2: prior art mutant HPPD polypeptide (WO2014/043435): E335P G336W K339A A340Q (protein)
chain: MADLYENPMGLMGFEFIEFASPTPGTLEPIFEIMGFTKVATHRSKNVHLYRQGEINLILNNEPNSIASYFAAEHGPSVCGMAFRVKDSQKAYNRALELGAQPIHIDTGPMELNLPAIKGIGGAPLYLIDRFGEGSSIYDIDFVYLEGVERNPVGAGLKVIDHLTHNVYRGRMVYWANFYEKLFNFREARYFDIKGEYTGLTSKAMSAPDGMIRIPLNEESSKGAGQIEEFLMQFNGEGIQHVAFLTDDLVKTWDALKKIGMRFMTAPPDTYYEMLEGRLPDHGEPVDQLQARGILLDGSSVEGDKRLLLQIFSETLMGPVFFEFIQRKGDDGFGPWNFAQLFESIERDQVRRGVLTAD
modifications: mutant HPPD polypeptide
notes: prior art mutant HPPD polypeptide (WO2014/043435): E335P G336W K339A A340Q
With B1 the brown pigment formation [1, 6] was “++”, the brown pigment formation [1, 7] was “++” and the brown pigment formation [1, 8] was “++”. The “brown pigmentation, in words” value ([1]; 250 μM Cmpd. 1) was “only a slight brown pigmentation”, the brown pigment formation [1, 9] was “+” and the “brown pigmentation, in words” value ([1]; 500 μM Cmpd. 1) was “lost their brown pigmentation”. For the same molecule, the brown pigment formation [1, 10] was 0, the “brown pigmentation in the presence of the HPPD inhibitor, in words” value [2] was “did not produce a substantial brown pigmentation” and the “number of events with Herbicide Tolerance Rating 0” value [3] was 5. For the same molecule, the “Percentage events rated “2 & 3”” value ([3]; five days, less than 50% leaf damage) was 83.3%, the “number of events with Herbicide Tolerance Rating 1” value ([3]; five days) was 10 and the “number of events with Herbicide Tolerance Rating 2” value ([3]; five days) was 26. The “number of events with Herbicide Tolerance Rating 3” value ([3]; five days) was 49, the “leaf damage score, Interquartile range” value ([4]; 75th minus 25th percentile) was 30.0 and the “leaf damage score, 25th percentile” value ([4]; scale 0 (no damage) to 100 (complete bleaching)) was 15.0. For the same molecule, the “leaf damage score, 75th percentile” value ([4]; scale 0-100) was 45.0, the “leaf damage score, 90th percentile” value ([4]; scale 0-100) was 87.0 and the “leaf damage score, Median” value ([4]; scale 0-100) was 20.0. For the same molecule, the “Frequency in the population (events with ≤15% leaf damage)” value [5, 11] was 41%, the “Independent events with ≤15% leaf damage after spray” value [5, 11] was 16 and the “Frequency in the population (events with ≤15% leaf damage)” value [5, 12] was 26%. The “Independent events with ≤15% leaf damage after spray” value [5, 12] was 10.

B2: SEQ ID NO: 32: mutant HPPD polypeptide: P268R T270E E335P G336H N337S A340V I345V (protein)
chain: MADLYENPMGLMGFEFIEFASPTPGTLEPIFEIMGFTKVATHRSKNVHLYRQGEINLILNNEPNSIASYFAAEHGPSVCGMAFRVKDSQKAYNRALELGAQPIHIDTGPMELNLPAIKGIGGAPLYLIDRFGEGSSIYDIDFVYLEGVERNPVGAGLKVIDHLTHNVYRGRMVYWANFYEKLFNFREARYFDIKGEYTGLTSKAMSAPDGMIRIPLNEESSKGAGQIEEFLMQFNGEGIQHVAFLTDDLVKTWDALKKIGMRFMTAPRDEYYEMLEGRLPDHGEPVDQLQARGILLDGSSVEGDKRLLLQIFSETLMGPVFFEFIQRKGDDGFGPHSFKVLFESVERDQVRRGVLTAD
modifications: mutant HPPD polypeptide
notes: mutant HPPD polypeptide: P268R T270E E335P G336H N337S A340V I345V
B2 was tested, and the brown pigment formation [1, 6] was “+++”, the brown pigment formation [1, 7] was “+++” and the brown pigment formation [1, 8] was “+++”. For the same molecule, the brown pigment formation [1, 9] was “++”, the brown pigment formation [1, 10] was “+” and the “proportion of T0 soybean events with less than 10% leaf damage” value ([3]; five days) was ~72%. For the same molecule, the “number of events with Herbicide Tolerance Rating 0” value [3] was 1, the “number of events with Herbicide Tolerance Rating 1” value ([3]; five days) was 0 and the “number of events with Herbicide Tolerance Rating 2” value ([3]; five days) was 10. The “number of events with Herbicide Tolerance Rating 3” value ([3]; five days) was 28, the “Frequency in the population (events with ≤15% leaf damage)” value [5, 11] was 42% and the “Independent events with ≤15% leaf damage after spray” value [5, 11] was 10. The “Frequency in the population (events with ≤15% leaf damage)” value [5, 12] was 50% and the “Independent events with ≤15% leaf damage after spray” value [5, 12] was 12.

B3: SEQ ID NO: 31: mutant HPPD polypeptide: P268G T270E E335P G336H N337S A340V I345V (protein)
chain: MADLYENPMGLMGFEFIEFASPTPGTLEPIFEIMGFTKVATHRSKNVHLYRQGEINLILNNEPNSIASYFAAEHGPSVCGMAFRVKDSQKAYNRALELGAQPIHIDTGPMELNLPAIKGIGGAPLYLIDRFGEGSSIYDIDFVYLEGVERNPVGAGLKVIDHLTHNVYRGRMVYWANFYEKLFNFREARYFDIKGEYTGLTSKAMSAPDGMIRIPLNEESSKGAGQIEEFLMQFNGEGIQHVAFLTDDLVKTWDALKKIGMRFMTAPGDEYYEMLEGRLPDHGEPVDQLQARGILLDGSSVEGDKRLLLQIFSETLMGPVFFEFIQRKGDDGFGPHSFKVLFESVERDQVRRGVLTAD
modifications: mutant HPPD polypeptide
notes: mutant HPPD polypeptide: P268G T270E E335P G336H N337S A340V I345V
B3 was tested, and the brown pigment formation [1, 6] was “+++”, the brown pigment formation [1, 7] was “+++” and the brown pigment formation [1, 8] was “+++”. The brown pigment formation [1, 9] was “++”, the brown pigment formation [1, 10] was “+” and the “number of events with Herbicide Tolerance Rating 0” value [3] was 4. For the same molecule, the “number of events with Herbicide Tolerance Rating 1” value ([3]; five days) was 1, the “number of events with Herbicide Tolerance Rating 2” value ([3]; five days) was 21 and the “number of events with Herbicide Tolerance Rating 3” value ([3]; five days) was 30. The “Frequency in the population (events with ≤15% leaf damage)” value [5, 11] was 86%, the “Independent events with ≤15% leaf damage after spray” value [5, 11] was 12 and the “Frequency in the population (events with ≤15% leaf damage)” value [5, 12] was 93%. The “Independent events with ≤15% leaf damage after spray” value [5, 12] was 13.

B4: SEQ ID NO: 96: mutant HPPD polypeptide: R213K P268G T270E E335P G336H N337S A340V I345V (protein)
chain: MADLYENPMGLMGFEFIEFASPTPGTLEPIFEIMGFTKVATHRSKNVHLYRQGEINLILNNEPNSIASYFAAEHGPSVCGMAFRVKDSQKAYNRALELGAQPIHIDTGPMELNLPAIKGIGGAPLYLIDRFGEGSSIYDIDFVYLEGVERNPVGAGLKVIDHLTHNVYRGRMVYWANFYEKLFNFREARYFDIKGEYTGLTSKAMSAPDGMIKIPLNEESSKGAGQIEEFLMQFNGEGIQHVAFLTDDLVKTWDALKKIGMRFMTAPGDEYYEMLEGRLPDHGEPVDQLQARGILLDGSSVEGDKRLLLQIFSETLMGPVFFEFIQRKGDDGFGPHSFKVLFESVERDQVRRGVLTAD
modifications: mutant HPPD polypeptide
notes: mutant HPPD polypeptide: R213K P268G T270E E335P G336H N337S A340V I345V
B4 was tested, and the brown pigment formation [1, 6] was “+++”, the brown pigment formation [1, 7] was “++” and the brown pigment formation [1, 8] was “++”. The brown pigment formation [1, 9] was “++”, the brown pigment formation [1, 10] was “+” and the “number of events with Herbicide Tolerance Rating 0” value [3] was 0. The “number of events with Herbicide Tolerance Rating 1” value ([3]; five days) was 5, the “number of events with Herbicide Tolerance Rating 2” value ([3]; five days) was 43 and the “number of events with Herbicide Tolerance Rating 3” value ([3]; five days) was 34. For the same molecule, the “Frequency in the population (events with ≤15% leaf damage)” value [5, 11] was 70%, the “Independent events with ≤15% leaf damage after spray” value [5, 11] was 14 and the “Frequency in the population (events with ≤15% leaf damage)” value [5, 12] was 55%. The “Independent events with ≤15% leaf damage after spray” value [5, 12] was 11.

From patent US10597674B2, “HPPD variants and methods of use” (BASF Agricultural Solutions Seed, US LLC, priority 2015, dated 2020)
